Assay results from doi:10.1101/2020.03.26.009662.

Biological target: ForT, recombinant wild type
Experiment: SEC-MALS

## ForT, recombinant wild type (enzyme)
  stoichiometry N: 2
